One data set deals with DDX3-WT (human, UniProt O00571 1-662). Put plainly: EMSA; 300 nM DDX3, 50 nM RNA; ATP or AMP-PNP (nucleotide not specified for outcome); EMSA: RNA01 at pH 7.5, 6% native PAGE at 4 C; let-7c-5p 50 nM, proteins preincubated 20 min then 25 min on ice, ATP or AMP-PNP (5 mM), NativePAGE 3-12% Bis-Tris. As to conditions: protein: recombinant; single strand. For orientation: Mobility shift assays separate free from complexed probe on a gel.

In data set [1] the target is T1, TCTP (UniProt P13693 1-172).
T1 sequence: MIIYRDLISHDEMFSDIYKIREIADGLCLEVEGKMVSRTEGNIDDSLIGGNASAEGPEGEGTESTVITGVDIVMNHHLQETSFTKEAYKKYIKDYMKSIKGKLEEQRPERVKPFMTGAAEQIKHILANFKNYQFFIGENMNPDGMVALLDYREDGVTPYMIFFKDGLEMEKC
Put plainly: EMSA; 500 nM TCTP, 50 nM RNA; ATP or AMP-PNP; EMSA: RNA01 at pH 7.5, 6% native PAGE at 4 C; let-7c-5p 50 nM, proteins preincubated 20 min then 25 min on ice, ATP or AMP-PNP (5 mM), NativePAGE 3-12% Bis-Tris. As to conditions: protein: recombinant; single strand.

A further data set deals with Ded1 (DEAD-box helicase) (yeast, UniProt P06634 1-604). Put plainly: EMSA; 50 nM RNA; positive control; AMP-PNP; EMSA: RNA01 at pH 7.5, 6% native PAGE at 4 C; let-7c-5p 50 nM, proteins preincubated 20 min then 25 min on ice, ATP or AMP-PNP (5 mM), NativePAGE 3-12% Bis-Tris. As to conditions: protein: recombinant; label: 5'-Cy5; single strand.
Sequence of Ded1 (DEAD-box helicase) (P06634 whole entry): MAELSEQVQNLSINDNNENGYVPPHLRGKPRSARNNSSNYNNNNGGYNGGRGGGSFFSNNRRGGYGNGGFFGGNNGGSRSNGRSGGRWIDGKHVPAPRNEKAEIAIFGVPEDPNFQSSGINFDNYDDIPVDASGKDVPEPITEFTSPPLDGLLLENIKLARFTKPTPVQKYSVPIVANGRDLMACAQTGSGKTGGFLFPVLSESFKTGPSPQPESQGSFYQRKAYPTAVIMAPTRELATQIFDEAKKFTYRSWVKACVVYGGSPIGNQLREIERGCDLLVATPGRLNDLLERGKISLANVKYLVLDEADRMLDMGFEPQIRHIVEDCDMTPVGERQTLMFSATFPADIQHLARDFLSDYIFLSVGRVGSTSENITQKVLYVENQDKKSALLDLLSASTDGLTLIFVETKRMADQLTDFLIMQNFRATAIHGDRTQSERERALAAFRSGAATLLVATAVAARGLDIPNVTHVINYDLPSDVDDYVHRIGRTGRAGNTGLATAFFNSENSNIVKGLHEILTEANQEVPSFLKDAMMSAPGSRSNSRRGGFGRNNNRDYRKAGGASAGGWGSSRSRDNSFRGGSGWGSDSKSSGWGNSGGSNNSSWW
Data set [2] deals with T1, TCTP. Put plainly: EMSA; 50 nM RNA, increasing TCTP; pH 7.5; EMSA: RNA01 at pH 7.5, 6% native PAGE at 4 C; let-7c-5p 50 nM, proteins preincubated 20 min then 25 min on ice, ATP or AMP-PNP (5 mM), NativePAGE 3-12% Bis-Tris. The note with it: protein: recombinant; label: 5'-Cy5; single strand.

Sequence of DDX3-WT (O00571 whole entry): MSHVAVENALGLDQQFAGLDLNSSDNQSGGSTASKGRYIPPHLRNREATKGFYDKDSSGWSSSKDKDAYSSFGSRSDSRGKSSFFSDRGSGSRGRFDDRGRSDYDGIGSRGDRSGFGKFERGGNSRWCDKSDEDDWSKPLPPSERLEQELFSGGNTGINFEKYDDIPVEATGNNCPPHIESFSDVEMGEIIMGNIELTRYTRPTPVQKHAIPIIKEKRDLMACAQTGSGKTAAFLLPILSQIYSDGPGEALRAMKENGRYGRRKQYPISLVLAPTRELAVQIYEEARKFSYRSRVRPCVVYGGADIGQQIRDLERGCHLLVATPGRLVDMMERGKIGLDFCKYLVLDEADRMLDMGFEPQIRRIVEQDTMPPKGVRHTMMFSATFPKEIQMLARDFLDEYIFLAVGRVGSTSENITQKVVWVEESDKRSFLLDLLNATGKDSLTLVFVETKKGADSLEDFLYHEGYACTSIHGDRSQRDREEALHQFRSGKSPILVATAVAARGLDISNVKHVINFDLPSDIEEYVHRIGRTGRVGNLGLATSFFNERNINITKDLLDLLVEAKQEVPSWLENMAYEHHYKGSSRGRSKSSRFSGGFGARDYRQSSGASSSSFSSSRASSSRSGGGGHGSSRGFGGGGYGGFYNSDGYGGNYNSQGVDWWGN

UGAGGUAGUAGGUUGUAUGGUU (ssRNA) [let-7c-5p]: the binding result with DDX3-WT is recorded as “binds”; in the data set with TCTP [1] it was “no binding”.
Consider UCAUACUUUUCUUUUCUUUUCCAUC (ssRNA) [RNA01], for which the binding result is “binds” in the data set with Ded1 (DEAD-box helicase) and “no binding” with TCTP [2].

Values taken from article PMC11014985, “TCTP regulates genotoxic stress and tumorigenicity via intercellular vesicular signaling”.
